Molecular target: T1, GLP-1R (Mus musculus, UniProt O35659)
T1 construct: high expression level of glucagon-like-peptide-1 receptor (GLP-1R) on the surface of β-cells enables their specific detection and quantification in the native pancreas; from tissue; host or cells: pancreas and insulinomas of living control and RIP1-Tag2 mice
T1 sequence (O35659 22-463): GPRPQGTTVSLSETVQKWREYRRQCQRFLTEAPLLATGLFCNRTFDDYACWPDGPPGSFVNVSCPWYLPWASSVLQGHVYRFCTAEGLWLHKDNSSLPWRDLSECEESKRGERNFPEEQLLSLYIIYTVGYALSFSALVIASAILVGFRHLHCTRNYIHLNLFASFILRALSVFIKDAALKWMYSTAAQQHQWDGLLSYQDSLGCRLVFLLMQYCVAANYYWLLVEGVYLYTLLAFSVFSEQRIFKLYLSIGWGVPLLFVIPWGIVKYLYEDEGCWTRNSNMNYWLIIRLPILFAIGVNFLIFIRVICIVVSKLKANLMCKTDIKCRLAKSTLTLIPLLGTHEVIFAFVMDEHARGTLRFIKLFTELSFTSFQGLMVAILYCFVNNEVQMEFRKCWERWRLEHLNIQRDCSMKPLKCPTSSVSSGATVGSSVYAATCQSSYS
Set-up: species or system mice
Conditions: in vivo
Method: In brief, mice were fasted for 4-6 hours and anesthetized with 1-2% isoflurane/O2 gas mixture (Vetland, Louisville, KY, USA) before the in vivo measurements. A tail vein catheter was initially placed for the co-injection of 50 µL of tracer solution (0.12 MBq/g bodyweight) and 50 µL of MnCl2:Bicine solution (75 µmol/kg body weight). The animals were placed in supine position on the bed in order to attenuate the motion artifacts rising from the respiratory movements. Thus, [^64Cu]Ex4 and MnCl2 solution were co-injected i.v. as a bolus a few seconds after the beginning of dynamic PET measurements. […] PET quantification was performed by 20-min static frames acquired simultaneously with 7T MRI scanner using a compatible PET-insert or consecutively using an Inveon-PET scanner (Inveon Dedicated PET, Siemens Healthineers, Knoxville, TN, USA). […] During the acquisition, we monitored the breathing with an MR-compatible breathing sensor. […]
The volume of interest (VOI) for the entire pancreas (Pancreas^Control; Pancreas^RIP1-Tag2) and the detected insulinomas (Insulinomas^RIP1-Tag2) were manually drawn in Inveon Research Workplace (Siemens Heathineers) after co-registration of the PET images. […] The co-registered VOIs were exported and analyzed in MATLAB (R2013b; The MathWorks, Natick, MA, USA) using an in-house script. […] For the quantification, we considered voxels with R1 values between 0.4 and 10 s^-1. […]

## [^64Cu]Cu-NODAGA-^40Lys-Exendin-4 [[^64Cu]Ex4]
  dynamic PET curve of pancreatic uptake: stable pancreatic uptake after 20 min until 1 h

Source: publication PMC6929626, “PET/MRI enables simultaneous in vivo quantification of β-cell mass and function” (Theranostics, 2020)
